Test [1] deals with T1, human ICOS-mFc (Chimerigen) (human, UniProt Q9Y6W8 21-140).
T1 construct: Bought; also called recombinant human ICOS protein; hICOS; not shown: mouse Fc of the bought fusion
T1 sequence: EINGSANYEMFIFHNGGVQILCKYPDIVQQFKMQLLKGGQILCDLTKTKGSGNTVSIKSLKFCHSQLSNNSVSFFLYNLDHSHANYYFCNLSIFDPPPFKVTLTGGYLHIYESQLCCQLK
As to the kind of experiment: DELFIA ELISA on coated human ICOS-mFc, N=3. Here is the method:
(§1) Recombinant ICOS proteins, human ICOS-mFc or mouse ICOS-mFc (Chimerigen) were diluted in 1×PBS and added to Black Hi-bind plates (Griener) at 1 μg/ml, 50 μl/well. Recombinant PD-L1 proteins, human PD-L1-Flag-His or mouse-His were diluted in 1×PBS and added to Black Hi-bind plates (Griener) at 4 μg/ml, 50 μl/well. The plates were left overnight at 4° C. The next day plates were washed 3× with 300 μl/well of 1×PBS+0.1% Tween and blocked with 200 ul/well of 1×PBS+1% BSA blocking buffer for 1 hr at RT on a plate shaker. Plates were washed 3× with 300 μl/well of 1×PBS+0.1% Tween.
(§2) However, human-PD-L1 mAb² antibodies were diluted in 1×PBS+0.1% BSA buffer and diluted 1 in 2 from a starting working concentration of 0.066 μM over an 11 point titration. Titrated antibodies were added to the plates, 50 μl/well and left to incubate for 1 hr at R.T on a plate shaker. Plates were washed 3× with 300 μl/well of 1×PBS+0.1% Tween.
(§3) DELFIA® Eu-labelled Anti-human IgG (Perkin-Elmer) was diluted 1:500 in DELFIA Assay buffer (Perkin-Elmer) and added to the assay plate (50 μl/well), left to incubate for 1 hr at RT on a plate shaker. […] After incubation, assay was read on Envision plate reader (Perkin Elmer), Time-resolved fluorescence (TRF) was measured at 615 nm.

Test [2] has as its target T1, human ICOS-mFc (Chimerigen). In words: DELFIA ELISA on coated human ICOS-mFc, mean. Here is the method: as §1, §2, §3
The target of test [3] is T2, mouse ICOS-mFc (Chimerigen) (mouse, UniProt Q9WVS0 21-141, limits assumed).
T2 construct: Bought; also called recombinant mouse ICOS protein; mICOS; not shown: mouse Fc of the bought fusion
T2 sequence: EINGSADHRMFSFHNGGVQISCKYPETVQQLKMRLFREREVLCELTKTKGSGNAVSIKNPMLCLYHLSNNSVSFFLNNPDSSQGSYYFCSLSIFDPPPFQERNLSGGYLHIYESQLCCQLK
As to the kind of experiment: HTRF, mouse ICOS-mFc, competitor mouse B7-H2-Alexa 647, average. The procedure:
5 μl of human ICOS-mFc (Chimerigen) at 20 nM (5 nM final) or 5 ul of mouse ICOS-mFc (Chimerigen) at 4 nM (1 nM final) were added to relevant assay wells. Plate was incubated for 1 hour (hr) at room temperature (RT).
After incubation, assay was read on Envision plate reader (Perkin Elmer) using a standard HTRF protocol. 620 nm and 665 nm channel values were exported to Microsoft Excel and % Delta-F and % Neutralisation calculations performed. Titration curves and IC50 values [M] were plotted using Graphpad (Prism). IC50 values were calculated by first transforming the data using equation X=Log(X). The transformed data was then fitted using nonlinear regression, using fitting algorithm, log (inhibitor) vs. response—variable slope (four parameters).

Test [4] addresses T3, mouse PD-L1 expressed on CHO cells (mouse, UniProt Q9EP73 19-290).
T3 construct: also called CHO-S cells transfected with mPD-L1; CHO mouse PD-L1
As to the kind of experiment: Flow cytometry on CHO mouse PD-L1 cells (sentence prints 'human PD-L1').

For test [5], the target named is T4, mouse ICOS expressed on CHO cells (mouse, UniProt Q9WVS0 21-200).
T4 construct: also called CHO-S cells transfected with mouse ICOS; mICOS
T4 sequence (looked up): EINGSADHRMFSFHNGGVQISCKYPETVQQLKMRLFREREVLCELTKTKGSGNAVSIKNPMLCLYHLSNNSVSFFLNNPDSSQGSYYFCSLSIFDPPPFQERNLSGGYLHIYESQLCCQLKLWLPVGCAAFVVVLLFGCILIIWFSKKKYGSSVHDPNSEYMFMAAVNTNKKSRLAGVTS
As to the kind of experiment: Flow cytometry on CHO-S mouse ICOS cells, anti-human IgG AF647, N=2. Here is the method:
CHO—S cells transfected with either human ICOS or mouse ICOS were resuspended in FACS buffer (PBS+1% w/v BSA+0.1% w/v sodium azide) and transferred to a 96-well V-bottom plate (Greiner) at a density of 1×10⁵ cells per well. mAb and mAb² were titrated in FACS buffer, 1 in 3 dilution across 11 points from a starting working concentration of 400 nM. Plates were centrifuged at 300×g for 3 minutes, supernatant discarded and 50 μL mAb or mAb² solution were added to cells and incubated at 4° C. for 1 hour. Cells were washed with 150 μL of PBS and centrifuged at 300×g for 3 minutes, supernatant was discarded and cell pellet resuspended in 150 μL PBS added. This wash step was repeated twice. Bound mAb or mAb² was detected by addition of 50 μL of anti-human 647 (Jackson ImmunoResearch) diluted to 3 ug/ml in FACS buffer. Cells were incubated for 1 hour at 4° C. in the dark. Cells were washed with 150 μL of PBS and centrifuged at 300 g for 3 minutes, supernatant was discarded and cell pellet resuspended in 150 μL PBS added. This wash step was repeated twice. Cells were fixed with 25 μL 4% v/v paraformaldehyde, incubated for 20 minutes at 4° C., cells were pelleted by centrifugation at 300×g and the supernatant discarded. […] AlexaFluor 647 signal intensity (geometric mean) was measured by flow cytometry using a Beckman Coulter CytoFLEX instrument.

Test [6] has as its target T5, Biotinylated human ICOS protein (human, UniProt Q9Y6W8 21-140, limits assumed, biotinylated (sites not given)).
T5 construct: Captured on the NLC chip in the avidity SPR
T5 sequence: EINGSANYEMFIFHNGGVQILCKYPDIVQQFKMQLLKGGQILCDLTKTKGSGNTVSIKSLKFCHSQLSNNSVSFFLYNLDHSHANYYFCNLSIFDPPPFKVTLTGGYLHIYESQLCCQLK
As to the kind of experiment: SPR ProteOn avidity format, biotinylated human ICOS on NLC chip; calculated on-rate. Here is the method:
Biotinylated human ICOS protein diluted at 7.5 μg/mL in running buffer (1× HBS-EP+ Buffer Technova, cat. No. H8022) was captured on a NLC sensor chip (Bio-Rad, cat No 1765021). The surface was then blocked using biocytin (Sigma Aldrich, cat No B1758) at 1 mg/mL.
The assay was carried out at 25° C.
The buffer injection (i.e. 0 nM) was used to double reference the sensorgrams. […]

T3 sequence (Q9EP73 19-290 limits assumed): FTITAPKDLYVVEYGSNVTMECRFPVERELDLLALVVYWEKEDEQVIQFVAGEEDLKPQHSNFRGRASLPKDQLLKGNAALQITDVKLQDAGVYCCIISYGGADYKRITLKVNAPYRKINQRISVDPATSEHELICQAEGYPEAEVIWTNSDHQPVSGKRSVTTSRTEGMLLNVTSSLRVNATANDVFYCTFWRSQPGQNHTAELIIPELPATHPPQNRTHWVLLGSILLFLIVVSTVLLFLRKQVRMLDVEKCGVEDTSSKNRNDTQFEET

B1: STIM003 (antibody, human IgG1, kappa)
heavy: not shown
light: EIVLTQSPGTLSLSPGERATLSCRASQSVSRSYLAWYQQKRGQAPRLLIYGASSRATGIPDRFSGDGSGTDFTLSISRLEPEDFAVYYCHQYDMSPFTFGPGTKVDIKRTVAAPSVFIFPPSDEQLKSGTASVVCLLNNFYPREAKVQWKVDNALQSGNSQESVTEQDSKDSTYSLSSTLTLSKADYEKHKVYACEVTHQGLSSPVTKSFNRGEC
notes: Anti-ICOS monospecific antibody, tested as human IgG1; also called STIM003 monoclonal IgG1 antibody
On to B1, for which the EC50 turned out to be 0.727 nM in test [1], 0.751 nM in test [2] and 2.19 nM in test [5]. In test [3], this molecule returned an IC50 of 0.37 nM. Besides, the binding result in test [4] is given as “no binding (tested: 22 nM)”. Moreover, the kon in test [6] was 267000 M⁻¹ s⁻¹.

B2: STIM001 (antibody, human IgG1, kappa)
heavy: not shown
light: DIVMTQSPLSLPVTPGEPASISCRSSQSLLHSNEYNYLDWYLQKPGQSPQLLIFLGSNRASGVPDRFSGSGSGTDFTLKITRVEAEDVGIYYCMQSLQTPLTFGGGTKVEIKRTVAAPSVFIFPPSDEQLKSGTASVVCLLNNFYPREAKVQWKVDNALQSGNSQESVTEQDSKDSTYSLSSTLTLSKADYEKHKVYACEVTHQGLSSPVTKSFNRGEC
notes: Anti-ICOS monospecific antibody, tested as human IgG1; also called STIM001 monoclonal IgG1 antibody
Consider B2, for which the EC50 in test [1] is 41.3 nM; in test [2], 28.9 nM; in test [5] it was 5.06 nM. In addition, the IC50 in test [3] worked out at 8.71 nM. Also, the binding result in test [4] is listed as “no binding (tested: 22 nM)”. For the same molecule, the kon in test [6] was 7990 M⁻¹ s⁻¹.

Values taken from patent US20240343810A1 (published 2024).
